# Data from patent publication US20090220587A1.
# * marks the point of attachment. X1 = 1,2‑dioleoyl‑sn‑glycero‑3‑succinate, CCCCCCCC/C=C\CCCCCCCC(=O)OC[C@H](COC(=O)CCC(=O)*)OC(=O)CCCCCCC/C=C\CCCCCCCC
# B1: liposome complex comprising the conjugated endothelin peptide ligand 1,2-dioleoyl-sn-glycero-3-succinate-Cys-His-Leu-Asp-Ile-Ile-Trp-COOH (peptide)
# peptide: X1-CHLDIIW-OH
# modifications: not fully specified; printed as 1,2-dioleoyl-sn-glycero-3-succinate-Cys-His-Leu-Asp-Ile-Ile-Trp-COOH; also: lipid conjugate incorporated in liposomes
# What was measured:
# [1] = molecular target: endothelin receptors on A549 human lung epithelial carcinoma cells (human); test: cell-based or functional assay
# [2] = molecular target: endothelin receptors on rat peritoneal mast cells (RBL) (rat); test: cell-based or functional assay
binder,measurement,setting,value
B1,recovery of endothelin receptors after internalization,[1],100%
same,reduction of endothelin receptors after pre-exposure to unlabeled liposomes,[1],50%
same,reduction of endothelin receptors after pre-exposure to unlabeled liposomes,[2],50%
